Experimental data published in patent EP0571387B1.

Target: c-met protooncogene product (HGF receptor) on B5/589 human mammary epithelial cells (human) (UniProt P08581)
Assay: cell-based or functional assay

Sequence of UniProt P08581 (P08581 25-1390): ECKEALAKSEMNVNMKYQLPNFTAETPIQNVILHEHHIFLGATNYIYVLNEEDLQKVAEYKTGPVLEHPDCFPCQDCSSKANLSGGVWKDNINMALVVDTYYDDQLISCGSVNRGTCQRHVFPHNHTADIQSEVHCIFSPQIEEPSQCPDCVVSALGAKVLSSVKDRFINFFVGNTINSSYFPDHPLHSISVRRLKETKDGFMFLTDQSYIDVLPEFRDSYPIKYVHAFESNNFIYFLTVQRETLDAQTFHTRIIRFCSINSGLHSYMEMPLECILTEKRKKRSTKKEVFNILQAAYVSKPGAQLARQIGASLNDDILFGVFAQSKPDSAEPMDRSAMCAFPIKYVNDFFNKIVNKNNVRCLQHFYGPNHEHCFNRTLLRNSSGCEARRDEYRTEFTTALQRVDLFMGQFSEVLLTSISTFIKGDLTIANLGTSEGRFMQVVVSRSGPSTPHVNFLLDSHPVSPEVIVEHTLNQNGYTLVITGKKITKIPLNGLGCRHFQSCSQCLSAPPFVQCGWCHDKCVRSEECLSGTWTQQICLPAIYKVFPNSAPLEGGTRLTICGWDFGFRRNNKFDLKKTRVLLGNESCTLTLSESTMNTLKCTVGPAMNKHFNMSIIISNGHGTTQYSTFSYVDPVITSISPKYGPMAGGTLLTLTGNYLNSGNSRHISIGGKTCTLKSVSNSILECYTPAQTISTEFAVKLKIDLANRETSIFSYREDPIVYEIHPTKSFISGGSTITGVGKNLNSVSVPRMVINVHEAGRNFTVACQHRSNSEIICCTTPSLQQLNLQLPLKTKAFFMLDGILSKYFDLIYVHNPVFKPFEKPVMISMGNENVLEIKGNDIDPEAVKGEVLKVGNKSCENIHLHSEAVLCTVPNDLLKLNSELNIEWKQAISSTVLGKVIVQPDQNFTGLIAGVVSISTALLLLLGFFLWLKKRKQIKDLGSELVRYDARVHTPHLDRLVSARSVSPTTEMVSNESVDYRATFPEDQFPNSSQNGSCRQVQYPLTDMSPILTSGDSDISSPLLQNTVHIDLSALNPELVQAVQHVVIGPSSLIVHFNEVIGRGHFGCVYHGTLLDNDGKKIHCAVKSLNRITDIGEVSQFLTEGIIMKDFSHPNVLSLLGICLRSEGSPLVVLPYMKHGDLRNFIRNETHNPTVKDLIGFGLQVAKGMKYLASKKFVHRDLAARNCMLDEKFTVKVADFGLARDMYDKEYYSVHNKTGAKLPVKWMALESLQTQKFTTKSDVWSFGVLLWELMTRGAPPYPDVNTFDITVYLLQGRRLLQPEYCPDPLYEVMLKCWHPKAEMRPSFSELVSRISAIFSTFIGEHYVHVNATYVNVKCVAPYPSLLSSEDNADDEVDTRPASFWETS

- inhibition of HGF-induced [3H]-thymidine incorporation in B5/589 cells (fold molar excess over HGF): 10 to 20
Substance: HGF/NK2 (34 kd truncated HGF variant, naturally occurring, purified from conditioned medium of SK-LMS-1 cells) (ligand)
